Data as given in patent US20250352661A1 (MYTHIC THERAPEUTICS, published 2025).

T1: Human LRRC15 Protein, His Tag (Acro Biosystems) (human, UniProt Q8TF66 22-538, limits assumed)
T1 construct: Bought protein with His tag
T1 sequence (looked up): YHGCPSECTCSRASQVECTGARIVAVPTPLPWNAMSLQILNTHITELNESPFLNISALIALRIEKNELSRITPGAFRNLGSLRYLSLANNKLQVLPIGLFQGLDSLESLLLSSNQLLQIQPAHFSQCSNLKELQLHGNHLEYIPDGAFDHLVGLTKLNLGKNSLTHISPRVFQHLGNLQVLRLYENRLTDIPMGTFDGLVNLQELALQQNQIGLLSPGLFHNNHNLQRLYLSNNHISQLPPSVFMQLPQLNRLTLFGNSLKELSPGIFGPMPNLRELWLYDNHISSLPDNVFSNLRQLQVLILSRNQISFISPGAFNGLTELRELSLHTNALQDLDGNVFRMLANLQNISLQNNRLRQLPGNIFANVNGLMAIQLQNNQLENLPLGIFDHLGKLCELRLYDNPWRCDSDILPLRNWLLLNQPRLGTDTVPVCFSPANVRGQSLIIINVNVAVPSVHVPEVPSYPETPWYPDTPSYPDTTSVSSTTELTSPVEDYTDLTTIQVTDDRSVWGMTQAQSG


Target: T1, Human LRRC15 Protein, His Tag (Acro …)
Assay: BLI; dissociation pH 7.4 black, pH 5.4 grey [D00008 FIG. 1F]
Text: For each individual plot, antigen binding proteins were captured on anti-human Fc biosensors and associated with LRRC15 at pH 7.4. Dissociation was at pH 7.4 (black) or pH 5.4 (grey). Major X-axis ticks=100 seconds, with left dashed vertical line=0 seconds. Major Y-axis ticks=0.5 nm and octet plots are shown MYT5712 and MYT6080-MYT6121.
Multiple LRRC15-binding monoclonal antibodies have been described in the literature and can be used as a template for engineering pH-dependent binding. We selected discovery RabMAb clone 15G7 (rabbit VH SEQ ID NO: 378, rabbit VL SEQ ID NO: 451; humanized VH SEQ ID NO: 382, humanized VL SEQ ID NO: 455) as a LRRC15-binding monoclonal antibody for pH-engineering via histidine scanning. […] To generate pH-dependent sequence variants, individual amino acid residues within the heavy chain CDRs were systematically substituted with a histidine (or alanine if H was already present in a given position; e.g., MYT6099), one at a time (rabbit, MYT6080-6121). Desirable mutations were transferred to a humanized framework (humanized, MYT 8387-8411). After allowing for four days of protein expression, cell culture supernatants were collected, quantified by SDS-PAGE analysis, and the pH dependence of the variant was evaluated using biolayer interferometry (BLI) on an Octet RED 96e instrument. Briefly, cell culture supernatants were diluted based on qualitative expression level of the variant determined by visual examination of SDS-PAGE gels, 5 μL of cell culture supernatant was diluted into 195 μL of 1×PBST, pH 7.4 for high expressors, 25 μL of cell culture supernatant was diluted into 175 μL of 1×PBST, pH 7.4 for medium expressors and 100 μL of cell culture supernatant was diluted into 100 μL of 1×PBST, pH 7.4 for low expressors for loading onto the sensor tips.

binding result	Binder
binds	MYT6123 (antibody, V domains shown, rabbit 15G7 VL A25H; chimeric, human constant regions) VH: QEQLEESGGDLVKPGASLTLTCTASGLDFRRTNYICWVRQAPGKGLEWIGCIYIADVVHYYASWAKGRFTFSKTSSTTVTLQMTSLTAADTATYFCARGADGGFVYGMDLWGPGTLVTVSS VL: DVVMTQTPASVSEPVGGTVTIKCQHSQSIGNYLSWYQQKPGQRPKRLIYSASTLPSGVPSRFKGAGSGTEFTLTISDLESADAATYYCQNNYWLAGYGHPFGGGTEVVVK
binds	MYT6129 (antibody, V domains shown, rabbit 15G7 VL N31H; chimeric, human constant regions) VH: QEQLEESGGDLVKPGASLTLTCTASGLDFRRTNYICWVRQAPGKGLEWIGCIYIADVVHYYASWAKGRFTFSKTSSTTVTLQMTSLTAADTATYFCARGADGGFVYGMDLWGPGTLVTVSS VL: DVVMTQTPASVSEPVGGTVTIKCQASQSIGHYLSWYQQKPGQRPKRLIYSASTLPSGVPSRFKGAGSGTEFTLTISDLESADAATYYCQNNYWLAGYGHPFGGGTEVVVK
binds	MYT6128 (antibody, V domains shown, rabbit 15G7 VL G30H; chimeric, human constant regions) VH: QEQLEESGGDLVKPGASLTLTCTASGLDFRRTNYICWVRQAPGKGLEWIGCIYIADVVHYYASWAKGRFTFSKTSSTTVTLQMTSLTAADTATYFCARGADGGFVYGMDLWGPGTLVTVSS VL: DVVMTQTPASVSEPVGGTVTIKCQASQSIHNYLSWYQQKPGQRPKRLIYSASTLPSGVPSRFKGAGSGTEFTLTISDLESADAATYYCQNNYWLAGYGHPFGGGTEVVVK
binds	MYT6130 (antibody, V domains shown, rabbit 15G7 VL Y32H; chimeric, human constant regions) VH: QEQLEESGGDLVKPGASLTLTCTASGLDFRRTNYICWVRQAPGKGLEWIGCIYIADVVHYYASWAKGRFTFSKTSSTTVTLQMTSLTAADTATYFCARGADGGFVYGMDLWGPGTLVTVSS VL: DVVMTQTPASVSEPVGGTVTIKCQASQSIGNHLSWYQQKPGQRPKRLIYSASTLPSGVPSRFKGAGSGTEFTLTISDLESADAATYYCQNNYWLAGYGHPFGGGTEVVVK
binds	MYT6133 (antibody, V domains shown, rabbit 15G7 VL S50H; chimeric, human constant regions) VH: QEQLEESGGDLVKPGASLTLTCTASGLDFRRTNYICWVRQAPGKGLEWIGCIYIADVVHYYASWAKGRFTFSKTSSTTVTLQMTSLTAADTATYFCARGADGGFVYGMDLWGPGTLVTVSS VL: DVVMTQTPASVSEPVGGTVTIKCQASQSIGNYLSWYQQKPGQRPKRLIYHASTLPSGVPSRFKGAGSGTEFTLTISDLESADAATYYCQNNYWLAGYGHPFGGGTEVVVK
binds	MYT6126 (antibody, V domains shown, rabbit 15G7 VL S28H; chimeric, human constant regions) VH: QEQLEESGGDLVKPGASLTLTCTASGLDFRRTNYICWVRQAPGKGLEWIGCIYIADVVHYYASWAKGRFTFSKTSSTTVTLQMTSLTAADTATYFCARGADGGFVYGMDLWGPGTLVTVSS VL: DVVMTQTPASVSEPVGGTVTIKCQASQHIGNYLSWYQQKPGQRPKRLIYSASTLPSGVPSRFKGAGSGTEFTLTISDLESADAATYYCQNNYWLAGYGHPFGGGTEVVVK
binds	MYT6136 (antibody, V domains shown, rabbit 15G7 VL T53H; chimeric, human constant regions) VH: QEQLEESGGDLVKPGASLTLTCTASGLDFRRTNYICWVRQAPGKGLEWIGCIYIADVVHYYASWAKGRFTFSKTSSTTVTLQMTSLTAADTATYFCARGADGGFVYGMDLWGPGTLVTVSS VL: DVVMTQTPASVSEPVGGTVTIKCQASQSIGNYLSWYQQKPGQRPKRLIYSASHLPSGVPSRFKGAGSGTEFTLTISDLESADAATYYCQNNYWLAGYGHPFGGGTEVVVK
binds	MYT6132 (antibody, V domains shown, rabbit 15G7 VL S34H; chimeric, human constant regions) VH: QEQLEESGGDLVKPGASLTLTCTASGLDFRRTNYICWVRQAPGKGLEWIGCIYIADVVHYYASWAKGRFTFSKTSSTTVTLQMTSLTAADTATYFCARGADGGFVYGMDLWGPGTLVTVSS VL: DVVMTQTPASVSEPVGGTVTIKCQASQSIGNYLHWYQQKPGQRPKRLIYSASTLPSGVPSRFKGAGSGTEFTLTISDLESADAATYYCQNNYWLAGYGHPFGGGTEVVVK
binds	MYT6131 (antibody, V domains shown, rabbit 15G7 VL L33H; chimeric, human constant regions) VH: QEQLEESGGDLVKPGASLTLTCTASGLDFRRTNYICWVRQAPGKGLEWIGCIYIADVVHYYASWAKGRFTFSKTSSTTVTLQMTSLTAADTATYFCARGADGGFVYGMDLWGPGTLVTVSS VL: DVVMTQTPASVSEPVGGTVTIKCQASQSIGNYHSWYQQKPGQRPKRLIYSASTLPSGVPSRFKGAGSGTEFTLTISDLESADAATYYCQNNYWLAGYGHPFGGGTEVVVK
binds	MYT6135 (antibody, V domains shown, rabbit 15G7 VL S52H; chimeric, human constant regions) VH: QEQLEESGGDLVKPGASLTLTCTASGLDFRRTNYICWVRQAPGKGLEWIGCIYIADVVHYYASWAKGRFTFSKTSSTTVTLQMTSLTAADTATYFCARGADGGFVYGMDLWGPGTLVTVSS VL: DVVMTQTPASVSEPVGGTVTIKCQASQSIGNYLSWYQQKPGQRPKRLIYSAHTLPSGVPSRFKGAGSGTEFTLTISDLESADAATYYCQNNYWLAGYGHPFGGGTEVVVK
binds	MYT6127 (antibody, V domains shown, rabbit 15G7 VL I29H; chimeric, human constant regions) VH: QEQLEESGGDLVKPGASLTLTCTASGLDFRRTNYICWVRQAPGKGLEWIGCIYIADVVHYYASWAKGRFTFSKTSSTTVTLQMTSLTAADTATYFCARGADGGFVYGMDLWGPGTLVTVSS VL: DVVMTQTPASVSEPVGGTVTIKCQASQSHGNYLSWYQQKPGQRPKRLIYSASTLPSGVPSRFKGAGSGTEFTLTISDLESADAATYYCQNNYWLAGYGHPFGGGTEVVVK
binds	MYT6125 (antibody, V domains shown, rabbit 15G7 VL Q27H; chimeric, human constant regions) VH: QEQLEESGGDLVKPGASLTLTCTASGLDFRRTNYICWVRQAPGKGLEWIGCIYIADVVHYYASWAKGRFTFSKTSSTTVTLQMTSLTAADTATYFCARGADGGFVYGMDLWGPGTLVTVSS VL: DVVMTQTPASVSEPVGGTVTIKCQASHSIGNYLSWYQQKPGQRPKRLIYSASTLPSGVPSRFKGAGSGTEFTLTISDLESADAATYYCQNNYWLAGYGHPFGGGTEVVVK
binds	MYT6124 (antibody, V domains shown, rabbit 15G7 VL S26H; chimeric, human constant regions) VH: QEQLEESGGDLVKPGASLTLTCTASGLDFRRTNYICWVRQAPGKGLEWIGCIYIADVVHYYASWAKGRFTFSKTSSTTVTLQMTSLTAADTATYFCARGADGGFVYGMDLWGPGTLVTVSS VL: DVVMTQTPASVSEPVGGTVTIKCQAHQSIGNYLSWYQQKPGQRPKRLIYSASTLPSGVPSRFKGAGSGTEFTLTISDLESADAATYYCQNNYWLAGYGHPFGGGTEVVVK
binds	MYT6134 (antibody, V domains shown, rabbit 15G7 VL A51H; chimeric, human constant regions) VH: QEQLEESGGDLVKPGASLTLTCTASGLDFRRTNYICWVRQAPGKGLEWIGCIYIADVVHYYASWAKGRFTFSKTSSTTVTLQMTSLTAADTATYFCARGADGGFVYGMDLWGPGTLVTVSS VL: DVVMTQTPASVSEPVGGTVTIKCQASQSIGNYLSWYQQKPGQRPKRLIYSHSTLPSGVPSRFKGAGSGTEFTLTISDLESADAATYYCQNNYWLAGYGHPFGGGTEVVVK
binds	MYT6137 (antibody, V domains shown, rabbit 15G7 VL L54H; chimeric, human constant regions) VH: QEQLEESGGDLVKPGASLTLTCTASGLDFRRTNYICWVRQAPGKGLEWIGCIYIADVVHYYASWAKGRFTFSKTSSTTVTLQMTSLTAADTATYFCARGADGGFVYGMDLWGPGTLVTVSS VL: DVVMTQTPASVSEPVGGTVTIKCQASQSIGNYLSWYQQKPGQRPKRLIYSASTHPSGVPSRFKGAGSGTEFTLTISDLESADAATYYCQNNYWLAGYGHPFGGGTEVVVK
binds	MYT6139 (antibody, V domains shown, rabbit 15G7 VL S56H; chimeric, human constant regions) VH: QEQLEESGGDLVKPGASLTLTCTASGLDFRRTNYICWVRQAPGKGLEWIGCIYIADVVHYYASWAKGRFTFSKTSSTTVTLQMTSLTAADTATYFCARGADGGFVYGMDLWGPGTLVTVSS VL: DVVMTQTPASVSEPVGGTVTIKCQASQSIGNYLSWYQQKPGQRPKRLIYSASTLPHGVPSRFKGAGSGTEFTLTISDLESADAATYYCQNNYWLAGYGHPFGGGTEVVVK
binds	MYT6138 (antibody, V domains shown, rabbit 15G7 VL P55H; chimeric, human constant regions) VH: QEQLEESGGDLVKPGASLTLTCTASGLDFRRTNYICWVRQAPGKGLEWIGCIYIADVVHYYASWAKGRFTFSKTSSTTVTLQMTSLTAADTATYFCARGADGGFVYGMDLWGPGTLVTVSS VL: DVVMTQTPASVSEPVGGTVTIKCQASQSIGNYLSWYQQKPGQRPKRLIYSASTLHSGVPSRFKGAGSGTEFTLTISDLESADAATYYCQNNYWLAGYGHPFGGGTEVVVK
